Experimental findings from the nanobody polyreactivity screen of Harvey et al. (2022) are described below.

A short description of this data set: yeast display, Sf9 membrane polyspecificity reagent, FACS + sequencing; frameworks hold sequencing errors. The gist of the method: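 After 36–48 hours of galactose induction, yeast (Saccharomyces cerevisiae BJ5465) displaying a synthetic nanobody library were stained at 4 °C for 1 hour with 10% biotinylated, detergent-solubilized Sf9 membrane reagent. Streptavidin microbeads enriched the stained cells before FACS sorting into low and high (top ~1%) gates on anti-HA and streptavidin fluorescence. Each clone's polyreactivity label reflects its gate of origin.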
In the case of “QVQLVESGGGLVQAGGSLRLSCASSGSIFRFNVMGWYRQAPGKERELVAAITRGDSTNYADSVKGRFTISRDNAKNTVYLQMNSLKPEDTAVYYCNARLYVPYRYDYWGQGTQVTVSS”, the “polyreactivity (PSR sort gate)” value is listed as “low polyreactivity”.
For “QVQLVESGGGLVQAGGSLRLSCASSGSIFRRYAMGWYRQATGKERELVAAISSNGGSTYYADSVKGRFTISRDNAKNTVYLQLNSLKPEDTAGYYCNAQVVHYRVSSVITYTIYDYWGQGTQVTVSS” the value was “high polyreactivity”; for “QVQLVESGGGLVQAGGSLRLSCASSGSIFSYYAKGWYIQAPGKASQLVADISQSGGTTYYADSVKGRFTISRDNAKNTVYLLKNSLKPEETAVYYCAARAPSSFDTQYYYWGEGTQVTVSS”, “low polyreactivity”.
To “QVQLVESGGGLVQAGGSLRLSCASSGSIFYTYAMGWYRQAPGKERELVAAISRSGGSTYYADSVKGRFTISRDNAKNTVYLQMNSLKPEDTAVYYCAAVSYRGRGYWGQGTQVTVSS” belongs “high polyreactivity”; to “QVQLVESGGGLVQAGGSLRLSCASSGSIINRYAMGGYRQAPGKERELVAAITQSGGRTYYADSVKGRFTISRDNAKNTVYLQMNSLKPEDTAVYYCNAVRWYLYDYWGQGTQVTVSS”, “high polyreactivity”; to “QVQLVESGGGLVQAGGSLRLSCASSGSTFARNAMGWYRQAPGKERELVAAISWRGGSTYYADSVKGRFTISRDNAKNTVYLQKNSLKPEDTAVYYCAADGAYWRGTGYEYWGQGTQVTVSS”, “high polyreactivity”.
To “QVQLVESGGGLVQAGGSLRLSCASSGSTFGINAMGGYREAPGKERELVAAITFISGSTNYADSVKGRFTISRDKAKNTVNLQMNCLKPEDTAVYYCAADSVYYAGYDVDYWGQGTQVTVSS” belongs “low polyreactivity”; to “QVQLVESGGGLVQAGGSLRLSCASSGSTFGPYTMGWYTQAPGKERELVATISSGGSTYYADSVKGRFTISRDNAKYTVYLQMKSLKPEDTAVYYCAARYWSIYDYWGQGTQVTVSS”, “low polyreactivity”; to “QVQLVESGGGLVQAGGSLRLSCASSGSTFLINAMGWYRQAPGKERELVAAISRDGSTNYADSVKGRFTISRDNAKNTVYLQMHSLIPEDTAVYSCAAVPGISVGRQPGYDYDYWGQGTQVTVSS”, “low polyreactivity”.
Take “QVQLVESGGGLVQAGGSLRLSCASSGSTFPSYAMGWYRQAPGKERELVAAINSGGGTNYADSVKGRFTISRDNAKNTVYLQMNSLKPEDTAVYYCAAYEGTYFTEVDYWGQGTQVTVSS”: the “polyreactivity (PSR sort gate)” value is reported as “low polyreactivity”.
For “QVQLVESGGGLVQAGGSLRLSCASSGSTFRKNTMGWYIPAPGKEREFVAAISRSGGSTYYADSVKGRFTISRDNAKNTVYLQMNSLKPEDTAVYYCAASYYPHQYSYELGDYWGQGTQVTVSS” the value was “low polyreactivity”; for “QVQLVESGGGLVQAGGSLRLSCASSGSTFSRYALGWYRQAPGKERELVAAITSYGGSTYYADSVKGRFTISRDKAKNTFYLQMNSLKPEYTAVYYCAASYQVRYDYWGQGTQVTVSS”, “high polyreactivity”.
Take “QVQLVESGGGLVQAGGSLRLSCASSGSTFTRYAMGWYRQAPGKERELVAAINSSGGRTYYADSVKGRFTISRDNAKNTVYLQMNSLKPEDTAVYYCAATRGRYREDEDYWGQGTQVTVSS”: the “polyreactivity (PSR sort gate)” value is on record as “high polyreactivity”.
Turning to “QVQLVESGGGLVQAGGSLRLSCASSGSTFWPNAMGWYRQAPGKERELVAAITGGGGTNYADSVKGRFTISRDNAKNTVYLQMNSLKPEDTAVYYCAAKKVNSRSHVKYYYWGQGTQVTVSS”, the “polyreactivity (PSR sort gate)” value was “high polyreactivity”.
For “QVQLVESGGGLVQAGGSLRLSCASSGSTSYRYAMGWYRQAPGKERELVAAISSSGGSTYYADSVKGRFTISRDNAKNTVYLQMNSLKPEDTAVYYCAARFYSGPGGYTMYYWGQGTQVTVSS” the value was “high polyreactivity”; for “QVQLVESGGGLVQAGGSLRLSCASSGTIFKYSAMGWYIQAPGKEREFVAGISWSGGRTYYADSVKGRFTISRDNAKITVYLHMNSLKPEDTAVYYCARVRLTSYGYYSWGQGTQVTVSS”, “high polyreactivity”; for “QVQLVESGGGLVQAGGSLRLSCASSGTIFSWYTMGRYRQAPGKERELVARITTSGGTTRYADSVKGRFTISRDNAKNTVYFQINSLKPEDTAVYYCAADRSPYWRGYFRYNYWGQGSQVTVSS”, “high polyreactivity”.
On to “QVQLVESGGGLVQAGGSLRLSCASSGTLYRYAMGWYIQATGKERELVAAISSNGGSTYYADSVKGRFTISRDNEKNTVYLQMNSLKPEDTAVYYCNALSRRFPLYGFWGQGTQVTVSS”, for which the “polyreactivity (PSR sort gate)” value is given as “high polyreactivity”.
With “QVQLVESGGGLVQAGGSLRLSCASSGTTFQYYAMGSYRQAPGKERELVARISDSSANTYYADSVNGRFTISRDNAMNTVYLQMNSLKPEDTAVYYCAASVPYKFYCVVSVRYEYWGQGTQVTVSS”, the “polyreactivity (PSR sort gate)” value is “low polyreactivity”.
For “QVQLVESGGGLVQAGGSLRLSCASSGYIITRKAMGWYRQAPGKERELVATISSRGGRTYYADSVKGRFTISRDNAKNTVYLQMNSLKPEDTAVYYCAATPWYRTRTYDYWGQGTQVTVSS” the value was “high polyreactivity”; for “QVQLVESGGGLVQAGGSLRLSCASSGYTFTVNAMGWYRQAPGKERELVAAISGSGGSTYYADSVKGRFTISRDNAKNTVYLQMNSLKPEDTAVYYCAADYWYYYWPLDYWGQGTQVTVSS”, “high polyreactivity”; for “QVQLVESGGGLVQAGGSLRLSCASSVSTVKYAMGWYRQAPGKERELVAAISKSAGRTYYADSVKGRFTISRDNAKNTVYLQMNSLKPVDTAVYYCADRQSYYGDDYWGQCTQVTVSS”, “high polyreactivity”.
For “QVQLVESGGGLVQAGGSLRLSCASTGFTFYRYAMGWYRQARGKERELVAAITRSGSRTYYADSVKGRFTISRDNAKNTVYLQMNSLKPEDTAVYYCNAPRPASTDRRRYNYWGQGTQVTVSS” the value was “high polyreactivity”.
To “QVQLVESGGGLVQAGGSLRLSCASTGSTFTTYAMGWYRQPPGKERELVAAISSRSTRTYYADSVKGRFTISRDNAKNTVYLQMNSLKPEDTAVYYCAASVPWKYEYWGQGTQVTVSS” belongs “high polyreactivity”; to “QVQLVESGGGLVQAGGSLRLSCATSGRTFRFNAMGWYRQAPGKEREFVAAITSGGGTYYADSVKGRFTISRDNAKNTLDLQMNSLKPEDTAVYYCAAPRQYYLMDYWGQGTQVTVSS”, “low polyreactivity”; to “QVQLVESGGGLVQAGGSLRLSCATSGRTYVPAMGWYRQAPGKERALVAAITSSGITYYADSVKGRVTISRDNAKNTVYLQMNSLNPEDTAVYYCATSYSNRWGWKYNYWGQGTQVTVSS”, “high polyreactivity”.
Consider “QVQLVESGGGLVQAGGSLRLSCATSGYTFTRYAMGWYRQAPGKERELVASISKTGGITYYADSVKGRFTISRDNAKNTVYLQMNSLKPEDTAVYYCNAVSKRRWAKYDYWGQGTQVTVSS”, for which the “polyreactivity (PSR sort gate)” value is “high polyreactivity”.
To “QVQLVESGGGLVQAGGSLRLSCATYAMGWSRQAPGKERELVASIRSGSTYYADSVKGRFTISRDNAKNTVYLQMNSLKPEDTAVYYCAAYEIYYEFDSWGQGTQVTVSS” belongs “low polyreactivity”; to “QVQLVESGGGLVQAGGSLRLSCDASAYIFVYNVMGWYRQAHGKERELVAAITSGGSTNYADSVKGRFTISRDNAKNTVYLQMNSLKPEDTAVYYCNAQFDLTFRGTGDYWGQGTQVTVSS”, “low polyreactivity”.
To “QVQLVESGGGLVQAGGSLRLSCDASGFIFDHNAMGWYRQAPGKERELVAAISWGYGSTYYADSVKGRFTISRDNAKNTVYLQMNRLKTEDTAVYYCAARAVRYYAWVRGGCTSFDYWGQGTQVTVSS” belongs “high polyreactivity”.
Take “QVQLVESGGGLVQAGGSLRLSCDASGFIFLGNAMGWYRQAPGKERELVAAISSGGSTYADSVKGRFTISRDNAKNTVYLQMNSLKPEDTSVYYCAVERAFRAQNYHEYDYWGQGTQVTVSS”: the “polyreactivity (PSR sort gate)” value is recorded as “low polyreactivity”.
To “QVQLVESGGGLVQAGGSLRLSCDASGFTFIRNGMGWYRQAPGKERELVAAINSRGGNTYYADSVKGRFTISRDNAKNTVYLQMNSLKPEDTAVYYCNRVVQRWSTQYGYWGQGTQVTVSS” belongs “high polyreactivity”; to “QVQLVESGGGLVQAGGSLRLSCDASGFTFTAYAMGSYRQAPGKERELVAAINWSGSRTYYADSVKGRFTISRDNAKNTVYLQMNSLNPEDTAVYYCAAGWTSSRYDYWGQGTQVTVSS”, “high polyreactivity”; to “QVQLVESGGGLVQAGGSLRLSCDASGFTFYGNAMGWYRQAPGKERELVAAISGRGGSTYYADSVKGRFTISRDNAKNTVYLQMNSLKPEDTAVYYCAIYVSWPLYYYWGQGTQVTVSS”, “low polyreactivity”.
For “QVQLVESGGGLVQAGGSLRLSCDASGFTIYRYAMGWYRQAPGKERELVAAISSGGGSTYYADSVKGRFTISRDNAKNTVYLQMYILKPEDNAVYYCNAQGFIYYWLRYDYWGQGTQVTVSS”, the “polyreactivity (PSR sort gate)” value is “high polyreactivity”.
For “QVQLVESGGGLVQAGGSLRLSCDASGLIFGPYTMGWYRQAPGKERELVAAISYGGVSTYYADSVKGRFTISRDNAKNTVYLQMNSLNPEDTAVYYCARGDSTRVIRPSAREYDYWGQGTQVTVSS” the value was “low polyreactivity”.
For “QVQLVESGGGLVQAGGSLRLSCDASGLIFVDNAMGWYRQAPGKERELVAAIDSGGSTNYADSVKGRFTISRDNAKNTVYLQMNSLKPEDTAVYYCAANTYYWWGIMDYWGPGTQVTVSS” the value was “low polyreactivity”; for “QVQLVESGGGLVQAGGSLRLSCDASGLIFWRNAMGWYRQAPGKERELVAGITSGGSTYYADSVKGRFTISRDNAKNTVYLQMNCLKPEDTAVYYCAKSTWQSYYYPRGSVYWGQGTQVTVSS”, “high polyreactivity”.
For “QVQLVESGGGLVQAGGSLRLSCDASGLIFYYYAMGWYRQAPGKERELVAAIRWSGGSTYYADSVKGRFTISRDNAKNTVYLQMNSLKPEDTAVYYCSEFYYWGQGTQVTVSS” the value was “high polyreactivity”.
Consider “QVQLVESGGGLVQAGGSLRLSCDASGNIFGLNAMGWYRQAPGKERELVSAISSGGSTNYADSVKGRFTISRDNAKNTVYLQMNSLKPEDTAVYYCAVQGSRYSYCYGYRFRTMDYWGQVTQVTVSS”, for which the “polyreactivity (PSR sort gate)” value was “high polyreactivity”.
For “QVQLVESGGGLVQAGGSLRLSCDASGRIFAGYAMGWYRQAPGKERELVASINWSGGSTYYADSVKGRFTISRDNAKNTVYLQMNSLKPEDTAVYYCAKEPTYRSGEAYVGLYYWGQGTQVTVSS” the value was “high polyreactivity”.
